T1: TFIIB (UniProt Q00403)
T1 sequence: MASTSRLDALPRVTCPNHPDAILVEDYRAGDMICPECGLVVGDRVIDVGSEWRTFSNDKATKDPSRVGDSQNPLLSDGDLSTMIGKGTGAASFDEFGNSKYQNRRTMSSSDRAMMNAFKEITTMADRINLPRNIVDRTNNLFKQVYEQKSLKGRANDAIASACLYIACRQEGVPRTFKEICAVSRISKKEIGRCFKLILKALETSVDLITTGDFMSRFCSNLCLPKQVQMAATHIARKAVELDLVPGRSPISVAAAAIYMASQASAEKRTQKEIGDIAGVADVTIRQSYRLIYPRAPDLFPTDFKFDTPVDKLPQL


Experiments:
TFIIB [1] = biological target: T1, TFIIB; test: BLI; details: BLI (ForteBio Octet QK), streptavidin sensors loaded with biotinylated DNA 25 ug/ml, 1x Kinetics Buffer (ForteBio); salt, pH and temperature not stated
TFIIB [2] = biological target: TFIIB (UniProt Q00403 1-316); test: BLI; kon 3.03E+04 1/Ms; koff 1.93E-03 1/s; 270 nM TFIIB; BLI (ForteBio Octet QK), streptavidin sensors loaded with biotinylated DNA 25 ug/ml, 1x Kinetics Buffer (ForteBio); salt, pH and temperature not stated; details: protein: commercial; label: 5' biotin (one strand, PCR primer)

Molecule	Kd (TFIIB [1]) [nM]	Kd (TFIIB [2]) [nM]
AACGGTGCGCGTTAAAACGCCGACGCGTCATAACCGCGACTCGTCGACGCAGCGCCGGCGTATAAGCGCGCCGTACGTCAACCGTCGACGTTAGTCCGACGATCGCGGCGTCTATACGCCGCGTCAATCGCGCGCGGTTCAACGTCGCGCTACGGGCGCGTATAAGTCGCGCGGTTAATACGCGCGGTGTACGCGGATGCCGGGGTCGCGTATAATCGGCGCGTATACCTCGCGCGTATACGCGGCGTATTACGGCCGCGTATAATTCGCGCGTATGGACCGCGTACGTCCTACGAGCGT (double strand) [ArS300]	64.6	–
AACGGTGCGCGTTAAAACGGCCGACGCGTCATAACCGCGACTCGTCGACGCAGCGCCGGCGTATAAGCGCGCCGTACGTCAACCGTCGACGTTAGTCCGACGATCGCGGCGTCTATACGCCGCGTCAATCGCGCGCGGTTCAACGTCGCGCTACGGGCGCGTATAAGTCGCGCGTATGGACCGCGTACGTCCTACGAGCGT (double strand) [ArS201]	77.6	–
TCGACGCGCGTATAACACGCGAGCGGTTCGAACGTTGGCGCGCTAACGCGAGTCGTACGCCCGTCAACGCGGATCAATCGCGCGACTTGTGCGCGACGTTAGACCGCCGATCGTCAAGCGCCGATCGGTAATCGGACGATTCGGATACGCGAGTTCGGACGTACGAGCGTGATACGGCGCGTAACGGTGCGCGTTAAAACGCCGACGCGTCATAACCGCGACTCGTCGACGC (double strand) [ArS232]	84.5	–
ArS110 (dsDNA) DNA 1: CTACGCCGCGTAAATATCGCGCGCTAACGGTGCGCGTTAAAACGCCGACGCGTCATAAAGCGCCGGCGTATAAGCGCGCCGTACGTCGTCGAACCACGTTAGTCCGGACC DNA 2: GGTCCGGACTAACGTGGTTCGACGACGTACGGCGCGCTTATACGCCGGCGCTTTATGACGCGTCGGCGTTTTAACGCGCACCGTTAGCGCGCGATATTTACGCGGCGTAG	–	63.7

— article PMC3097237, “Exploiting Nucleotide Composition to Engineer Promoters”
